Measurements reported in article doi:10.1101/108647.
Like-named read-outs stand apart in the source and are kept apart here.

Assays:
[1] = molecular target: T1, HisFlag-Mlh1 (MutLγ subunit);Mlh3 (MutLγ subunit) (Saccharomyces cerevisiae (S288c, …, UniProt P38920;Q12083 1-769;1-715, |)); test: FeBABE footprinting
T1 sequence 1: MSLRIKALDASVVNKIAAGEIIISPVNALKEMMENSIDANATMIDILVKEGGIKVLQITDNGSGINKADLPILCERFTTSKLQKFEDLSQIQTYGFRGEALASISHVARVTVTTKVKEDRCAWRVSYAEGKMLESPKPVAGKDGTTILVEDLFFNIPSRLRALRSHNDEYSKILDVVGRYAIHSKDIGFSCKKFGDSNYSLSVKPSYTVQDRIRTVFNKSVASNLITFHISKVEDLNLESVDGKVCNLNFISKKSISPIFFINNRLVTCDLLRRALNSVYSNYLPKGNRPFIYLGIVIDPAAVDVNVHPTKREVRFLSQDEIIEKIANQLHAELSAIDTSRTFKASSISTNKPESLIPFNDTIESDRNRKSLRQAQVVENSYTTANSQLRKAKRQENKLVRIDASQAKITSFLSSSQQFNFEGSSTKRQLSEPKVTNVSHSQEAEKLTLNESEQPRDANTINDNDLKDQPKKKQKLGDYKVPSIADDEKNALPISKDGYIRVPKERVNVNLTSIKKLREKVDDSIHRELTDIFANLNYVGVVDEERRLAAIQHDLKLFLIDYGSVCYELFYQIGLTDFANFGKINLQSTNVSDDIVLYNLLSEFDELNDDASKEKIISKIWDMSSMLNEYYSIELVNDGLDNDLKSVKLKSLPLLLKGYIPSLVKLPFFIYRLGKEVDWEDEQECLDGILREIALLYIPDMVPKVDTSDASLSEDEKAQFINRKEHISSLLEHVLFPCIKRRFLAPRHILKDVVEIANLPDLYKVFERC
T1 sequence 2: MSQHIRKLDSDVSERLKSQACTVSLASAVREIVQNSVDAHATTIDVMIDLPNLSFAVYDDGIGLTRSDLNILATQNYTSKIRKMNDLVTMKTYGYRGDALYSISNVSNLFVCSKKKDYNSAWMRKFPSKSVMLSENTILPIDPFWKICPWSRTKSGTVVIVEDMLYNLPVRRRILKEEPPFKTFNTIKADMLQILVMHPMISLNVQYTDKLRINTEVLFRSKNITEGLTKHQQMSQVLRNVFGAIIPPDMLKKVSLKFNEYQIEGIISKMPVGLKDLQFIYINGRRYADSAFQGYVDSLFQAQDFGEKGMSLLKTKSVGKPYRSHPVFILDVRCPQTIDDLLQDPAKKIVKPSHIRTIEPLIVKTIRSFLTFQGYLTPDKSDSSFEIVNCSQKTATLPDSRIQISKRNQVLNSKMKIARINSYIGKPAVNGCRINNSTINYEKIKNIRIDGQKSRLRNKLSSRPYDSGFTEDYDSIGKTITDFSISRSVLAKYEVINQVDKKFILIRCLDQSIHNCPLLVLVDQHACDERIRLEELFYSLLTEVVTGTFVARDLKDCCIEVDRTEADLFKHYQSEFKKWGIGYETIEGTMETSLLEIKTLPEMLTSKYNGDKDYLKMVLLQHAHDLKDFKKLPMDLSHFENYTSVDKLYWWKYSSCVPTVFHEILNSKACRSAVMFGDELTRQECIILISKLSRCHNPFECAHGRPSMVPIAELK

[2] = molecular target: T2, Mlh1 (untagged);HisFlag-Mlh3 (Saccharomyces cerevisiae (S288c, …, UniProt P38920;Q12083 1-769;1-715, |)); test: FeBABE footprinting
T2 sequence 1: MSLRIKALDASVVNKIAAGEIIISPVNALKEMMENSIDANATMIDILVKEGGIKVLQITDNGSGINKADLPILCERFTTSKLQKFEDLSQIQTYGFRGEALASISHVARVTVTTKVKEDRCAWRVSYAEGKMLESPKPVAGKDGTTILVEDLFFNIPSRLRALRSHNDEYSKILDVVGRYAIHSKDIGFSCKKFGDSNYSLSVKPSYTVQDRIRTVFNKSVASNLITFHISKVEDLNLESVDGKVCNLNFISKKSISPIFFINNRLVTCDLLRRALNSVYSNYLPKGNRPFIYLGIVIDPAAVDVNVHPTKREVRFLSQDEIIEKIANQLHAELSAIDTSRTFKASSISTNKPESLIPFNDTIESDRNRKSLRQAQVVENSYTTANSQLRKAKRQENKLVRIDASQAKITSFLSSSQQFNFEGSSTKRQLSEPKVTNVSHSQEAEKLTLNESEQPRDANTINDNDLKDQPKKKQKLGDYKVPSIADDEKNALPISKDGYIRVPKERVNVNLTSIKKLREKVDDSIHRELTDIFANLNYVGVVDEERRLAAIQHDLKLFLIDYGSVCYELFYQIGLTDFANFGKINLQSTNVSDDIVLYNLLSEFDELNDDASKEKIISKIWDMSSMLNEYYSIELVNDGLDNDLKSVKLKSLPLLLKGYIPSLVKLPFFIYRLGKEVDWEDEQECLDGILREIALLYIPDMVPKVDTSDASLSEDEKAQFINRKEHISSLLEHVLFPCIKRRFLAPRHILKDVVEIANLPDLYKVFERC
T2 sequence 2: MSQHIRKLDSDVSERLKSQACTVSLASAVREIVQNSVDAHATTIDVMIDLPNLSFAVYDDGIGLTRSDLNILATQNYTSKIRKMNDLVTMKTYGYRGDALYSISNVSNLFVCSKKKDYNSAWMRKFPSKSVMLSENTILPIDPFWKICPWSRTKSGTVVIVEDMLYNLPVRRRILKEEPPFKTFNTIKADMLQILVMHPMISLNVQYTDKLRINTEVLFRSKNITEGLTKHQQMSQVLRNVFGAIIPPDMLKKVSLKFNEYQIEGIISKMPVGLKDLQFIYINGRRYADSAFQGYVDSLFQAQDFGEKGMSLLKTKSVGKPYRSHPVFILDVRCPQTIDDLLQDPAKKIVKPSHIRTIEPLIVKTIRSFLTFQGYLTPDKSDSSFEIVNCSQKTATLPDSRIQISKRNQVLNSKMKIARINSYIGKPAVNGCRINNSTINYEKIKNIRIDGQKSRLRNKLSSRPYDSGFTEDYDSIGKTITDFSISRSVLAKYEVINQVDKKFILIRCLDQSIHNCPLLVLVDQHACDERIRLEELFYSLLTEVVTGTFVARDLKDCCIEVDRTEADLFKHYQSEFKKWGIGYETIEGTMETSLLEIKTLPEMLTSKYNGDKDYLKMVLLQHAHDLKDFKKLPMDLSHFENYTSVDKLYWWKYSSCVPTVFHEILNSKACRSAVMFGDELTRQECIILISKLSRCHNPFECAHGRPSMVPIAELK

[3] = molecular target: T1, HisFlag-Mlh1 (MutLγ subunit);Mlh3 …; test: pull-down
[4] = molecular target: T1, HisFlag-Mlh1 (MutLγ subunit);Mlh3 …; test: FeBABE footprinting; remark: listed apart in the source
[5] = molecular target: T2, Mlh1 (untagged);HisFlag-Mlh3; test: FeBABE footprinting; remark: listed apart in the source

B1: ssDNA+ FeBABE (cb361) (ssDNA)
DNA: TTTTTTTTTTTTTTTTTTTTTTTTTTTTTTTTTTTTTTTTTTTTTTTTTTTTTTTTTTTTTTTTTTTTTTTTTTTTTTTT
modifications: phosphorothioate-FeBABE after every 8 nt; 3'-biotin
binding result [1]: binds | binding result [2]: binds

B2: ssDNA80-biotin (cb316) (ssDNA)
DNA: TTTTTTTTTTTTTTTTTTTTTTTTTTTTTTTTTTTTTTTTTTTTTTTTTTTTTTTTTTTTTTTTTTTTTTTTTTTTTTTT
modifications: 3'-biotin
binding result [3]: binds

B3: HJ+1 FeBABE (cb256/351/369/098) (structured_DNA)
DNA 1: CTAGTATAGAGCCGGCGCGCCATGTCTAGATAGCGTTAGGTCTGCCGAATAGTACTACTCGGATCCCGAGCGAACCACGC
DNA 2: GCGTGGTTCGCTCGGGATCCGAGTAGTACTATTCGGCAGAGGATTCGAATAGGCCTAATCGAATTCCGCCATCGATGCAC
DNA 3: GTGCATCGATGGCGGAATTCGATTAGGCCTATTCGAATCCAGACGCGAGTAGATCTTCACGGTACCCGCGGTTACCCGTG
DNA 4: CACGGGTAACCGCGGGTACCGTGAAGATCTACTCGCGTCTCCTAACGCTATCTAGACATGGCGCGCCGGCTCTATACTAG
modifications: phosphorothioate-FeBABE on strands 2 and 3, segment 1 (nearest the center); 3'-biotin on strand 1
binding result [4]: binds | binding result [5]: binds

B4: HJ80-biotin (cb256/096/097/098) (structured_DNA)
DNA 1: CTAGTATAGAGCCGGCGCGCCATGTCTAGATAGCGTTAGGTCTGCCGAATAGTACTACTCGGATCCCGAGCGAACCACGC
DNA 2: GCGTGGTTCGCTCGGGATCCGAGTAGTACTATTCGGCAGAGGATTCGAATAGGCCTAATCGAATTCCGCCATCGATGCAC
DNA 3: GTGCATCGATGGCGGAATTCGATTAGGCCTATTCGAATCCAGACGCGAGTAGATCTTCACGGTACCCGCGGTTACCCGTG
DNA 4: CACGGGTAACCGCGGGTACCGTGAAGATCTACTCGCGTCTCCTAACGCTATCTAGACATGGCGCGCCGGCTCTATACTAG
modifications: 3'-biotin on strand 1
binding result [3]: binds

B5: dsDNA80-biotin (cb256/cb100) (dsDNA)
DNA 1: CTAGTATAGAGCCGGCGCGCCATGTCTAGATAGCGTTAGGTCTGCCGAATAGTACTACTCGGATCCCGAGCGAACCACGC
DNA 2: GCGTGGTTCGCTCGGGATCCGAGTAGTACTATTCGGCAGACCTAACGCTATCTAGACATGGCGCGCCGGCTCTATACTAG
modifications: 3'-biotin on strand 1
binding result [3]: no binding
